Measurements reported in PMC9500956, “In Vitro Characterization of the Physical Interactions between the Long Noncoding RNA TERRA and the Telomeric Proteins TRF1 and TRF2”.

T1: GST-B (hB) (human, UniProt Q15554 43-86)
T1 chain: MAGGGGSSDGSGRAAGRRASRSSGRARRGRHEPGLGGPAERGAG

T2: GST-A (hA) (human, UniProt P54274 1-66)
T2 sequence: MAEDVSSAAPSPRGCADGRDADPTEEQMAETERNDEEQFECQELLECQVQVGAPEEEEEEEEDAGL


What was measured:
Experiment in all cases: EMSA; E. coli tRNA; RNA EMSA: 50 mM HEPES pH 8, 1 mM DTT, 100 mM NaCl, 0.01% BSA, 2% glycerol, 50 ng/uL E. coli tRNA, 0.25 nM RNA, 20 min on ice then 10 min 25 C; dsDNA EMSA: same
GST-TRF2 = GST-TRF2 (human, UniProt Q15554 43-542); conditions: protein: recombinant, tags: N-terminal GST, chain copies: 2, label: 5'-32P
GST-hBL = GST-hBL (human, UniProt Q15554 1-86); conditions: protein: recombinant; tags: N-terminal GST; label: 5'-32P; G4-forming
GST-B (hB) = target: T1, GST-B (hB); conditions: protein: recombinant, tags: N-terminal GST, label: 5'-32P
GST-TRF1 = GST-TRF1 (human, UniProt P54274 1-439); conditions: protein: recombinant, tags: N-terminal GST, chain copies: 2, label: 5'-32P
GST-A (hA) = target: T2, GST-A (hA); conditions: protein: recombinant; tags: N-terminal GST; label: 5'-32P; G4-forming

| Binder | binding result (GST-TRF2; G4-forming) | binding result (GST-B (hB); G4-forming) | binding result (GST-TRF1; G4-forming) | binding result (GST-TRF2; not G4-forming) | binding result (GST-B (hB); not G4-forming) | binding result (GST-TRF1; not G4-forming) | other results |
| --- | --- | --- | --- | --- | --- | --- | --- |
| UUAGGGUUAGGGUUAGGGUUAGGGUUAGGG (structured_RNA) [TERRA (UUAGGG)5] | binds | binds | binds |  |  |  | binding result (GST-hBL): binds; binding result (GST-A (hA)): no binding |
| UUACGGUUACGGUUACGGUUACGGUUACGG (ssRNA) [MUT1 (UUACGG)5] |  |  |  | no binding | no binding | no binding |  |
| UUACCGUUACCGUUACCGUUACCGUUACCG (ssRNA) [MUT2 (UUACCG)5] |  |  |  | no binding | no binding | no binding |  |
| AUAGGGAUAGGGAUAGGGAUAGGGAUAGGG (structured_RNA) [MUT3 (AUAGGG)5] | binds | binds | binds |  |  |  |  |
| AAAGGGAAAGGGAAAGGGAAAGGGAAAGGG (structured_RNA) [MUT4 (AAAGGG)5] | binds | binds | binds |  |  |  |  |
| TERRA (UUAGGG)12 (structured_RNA) RNA: UUAGGGUUAGGGUUAGGGUUAGGGUUAGGGUUAGGGUUAGGGUUAGGGUUAGGGUUAGGGUUAGGGUUAGGG |  |  |  |  |  |  | binding result (GST-B (hB)): binds |
